Results: article PMC3700227

Target: Cladosporium fulvum LysM effector Ecp6 (extracellular protein 6), produced in Pichia pastoris (Cladosporium fulvum) (UniProt B3VBK9)
Test: SEC

Cladosporium fulvum LysM effector Ecp6 (extracellular protein 6), produced in Pichia pastoris (from UniProt B3VBK9) (natural protein)
stoichiometry N: 2
